Measurements from PMC3934934, “The Self-Interaction of a Nodavirus Replicase Is Enhanced by Mitochondrial Membrane Lipids” (PLoS ONE, 2014).

Assays:
Test in all cases: pull-down; MBP fusion protein (1 µM) held on amylose resin, His-tagged protein (1 µM) in vitro translated in rabbit reticulocyte lysate; room temperature, 4 hrs; no lipids; Western blot with anti-His; signals given as % of FL to FL protein A self-interaction
Settings in all cases: one partner purified
[1] = target: T1, MBP-protA fragment aa 1–254 (Wuhan nodavirus (WhNV), UniProt Q3KSM3 1-254)
T1 construct: also called 1–254 MBP/protA; source: E. coli strain TB1, purified (amylose resin); not shown: MBP, N-terminal, kept
T1 sequence: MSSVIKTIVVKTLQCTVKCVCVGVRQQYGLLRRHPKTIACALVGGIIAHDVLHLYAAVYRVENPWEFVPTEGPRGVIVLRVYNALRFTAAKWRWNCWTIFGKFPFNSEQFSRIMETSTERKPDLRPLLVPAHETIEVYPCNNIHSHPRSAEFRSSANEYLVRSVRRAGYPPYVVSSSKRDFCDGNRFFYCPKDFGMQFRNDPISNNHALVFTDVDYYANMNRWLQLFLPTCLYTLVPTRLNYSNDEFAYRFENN

[2] = target: T2, MBP-protA fragment aa 1–480 (Wuhan nodavirus (WhNV), UniProt Q3KSM3 1-480)
T2 construct: also called 1–480 MBP/protA; source: E. coli strain TB1, purified (amylose resin); not shown: MBP, N-terminal, kept
T2 sequence: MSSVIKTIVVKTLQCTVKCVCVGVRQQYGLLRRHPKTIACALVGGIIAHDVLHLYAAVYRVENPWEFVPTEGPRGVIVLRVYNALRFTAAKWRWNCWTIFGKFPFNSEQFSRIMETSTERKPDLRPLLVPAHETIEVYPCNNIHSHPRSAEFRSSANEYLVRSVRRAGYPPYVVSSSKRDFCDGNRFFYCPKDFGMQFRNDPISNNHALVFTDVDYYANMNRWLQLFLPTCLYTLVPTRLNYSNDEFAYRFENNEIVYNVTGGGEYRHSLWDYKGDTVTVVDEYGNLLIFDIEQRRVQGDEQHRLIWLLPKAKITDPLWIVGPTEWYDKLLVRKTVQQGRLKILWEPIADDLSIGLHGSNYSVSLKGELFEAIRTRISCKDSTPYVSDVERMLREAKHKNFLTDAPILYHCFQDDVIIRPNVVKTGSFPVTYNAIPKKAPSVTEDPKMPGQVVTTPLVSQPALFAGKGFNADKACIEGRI

[3] = target: T3, MBP-protA fragment aa 481–659 (Wuhan nodavirus (WhNV), UniProt Q3KSM3 481-659)
T3 construct: source: E. coli strain TB1, purified (amylose resin); not shown: MBP, N-terminal, kept
T3 sequence: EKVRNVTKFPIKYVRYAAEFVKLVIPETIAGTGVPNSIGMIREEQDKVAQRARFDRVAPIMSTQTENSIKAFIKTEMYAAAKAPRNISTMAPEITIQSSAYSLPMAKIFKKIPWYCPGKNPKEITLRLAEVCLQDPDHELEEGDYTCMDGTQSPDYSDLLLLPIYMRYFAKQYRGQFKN

[4] = target: T4, MBP-protA fragment aa 1–659 (Wuhan nodavirus (WhNV), UniProt Q3KSM3 1-659)
T4 construct: also called 1–659 MBP/protA; source: E. coli strain TB1, purified (amylose resin); not shown: MBP, N-terminal, kept
T4 sequence: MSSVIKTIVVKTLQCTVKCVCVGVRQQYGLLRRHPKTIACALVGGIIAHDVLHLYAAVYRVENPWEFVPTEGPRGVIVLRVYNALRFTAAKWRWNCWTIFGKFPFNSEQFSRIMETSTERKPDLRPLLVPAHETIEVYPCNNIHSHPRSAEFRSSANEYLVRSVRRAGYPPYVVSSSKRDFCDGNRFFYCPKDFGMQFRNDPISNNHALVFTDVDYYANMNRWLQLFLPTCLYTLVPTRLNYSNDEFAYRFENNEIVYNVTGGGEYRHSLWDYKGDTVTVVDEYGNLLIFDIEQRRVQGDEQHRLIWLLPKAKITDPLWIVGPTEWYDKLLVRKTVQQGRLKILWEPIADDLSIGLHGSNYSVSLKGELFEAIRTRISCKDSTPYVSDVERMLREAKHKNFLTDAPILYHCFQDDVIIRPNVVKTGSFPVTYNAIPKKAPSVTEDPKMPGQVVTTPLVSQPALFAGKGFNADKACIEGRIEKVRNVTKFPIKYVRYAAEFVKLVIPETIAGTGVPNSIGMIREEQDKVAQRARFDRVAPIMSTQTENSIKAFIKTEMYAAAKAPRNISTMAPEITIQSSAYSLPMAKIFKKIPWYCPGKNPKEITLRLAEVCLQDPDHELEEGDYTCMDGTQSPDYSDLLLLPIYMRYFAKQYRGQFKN

B1: His-tagged WhNV protein A, in vitro translated (natural protein)
chain: MSSVIKTIVVKTLQCTVKCVCVGVRQQYGLLRRHPKTIACALVGGIIAHDVLHLYAAVYRVENPWEFVPTEGPRGVIVLRVYNALRFTAAKWRWNCWTIFGKFPFNSEQFSRIMETSTERKPDLRPLLVPAHETIEVYPCNNIHSHPRSAEFRSSANEYLVRSVRRAGYPPYVVSSSKRDFCDGNRFFYCPKDFGMQFRNDPISNNHALVFTDVDYYANMNRWLQLFLPTCLYTLVPTRLNYSNDEFAYRFENNEIVYNVTGGGEYRHSLWDYKGDTVTVVDEYGNLLIFDIEQRRVQGDEQHRLIWLLPKAKITDPLWIVGPTEWYDKLLVRKTVQQGRLKILWEPIADDLSIGLHGSNYSVSLKGELFEAIRTRISCKDSTPYVSDVERMLREAKHKNFLTDAPILYHCFQDDVIIRPNVVKTGSFPVTYNAIPKKAPSVTEDPKMPGQVVTTPLVSQPALFAGKGFNADKACIEGRIEKVRNVTKFPIKYVRYAAEFVKLVIPETIAGTGVPNSIGMIREEQDKVAQRARFDRVAPIMSTQTENSIKAFIKTEMYAAAKAPRNISTMAPEITIQSSAYSLPMAKIFKKIPWYCPGKNPKEITLRLAEVCLQDPDHELEEGDYTCMDGTQSPDYSDLLLLPIYMRYFAKQYRGQFKNLYNQIYKQRATTSSGVPYNPEMTIRSGSSITTHAGTLNNAFNIYAALRDMGYDETTAWDKVGAVFGDDSLNANHQGEFHSYIEHVTKVLGMRYKSNLRERGQPVLFLGRYFVDPITSYDSFADPMRTIGKLHATANKNVSVEQGAANKAHGYITTDSKTPIIGAWARRVLEITKKKFKNGTGEEQYRCSNAWPQKDEAAIRAAMAAVLEVDEAQLIAQNEAVLKVNSLDQFPVVFDTYYDHKQLAEVDGQLVGTDLHIKEEDERQPETSIDSVPSTGPPPSNGDPNAGGKPTDGPSKGKRKVKGRRPRTAGDPATLRLTDAGSSRRVKPPRKLRPEAKRGGRPIETLVFKNSSLS
notes: also called His-protA; FL His-protA; source: in vitro translated in nuclease-treated rabbit reticulocyte lysates
- self-interaction efficiency, % of FL to FL protein A self-interaction [1]: 67%
- self-interaction efficiency, % of FL to FL protein A self-interaction [2]: 94%
- self-interaction efficiency, % of FL to FL protein A self-interaction [3]: 17%
- self-interaction efficiency, % of FL to FL protein A self-interaction [4]: 96%
